From PMC7671478, “Structure of the helicase core of Werner helicase, a key target in microsatellite instability cancers” come the findings set out here.

The target of the series is WRN helicase core (531-950), lacking the WH domain (Homo sapiens, UniProt Q14191 531-950). In words: HDX-MS; protein:ssDNA 1:2.5, no nucleotide analogue added; protection of D2 hairpin/motif IV peptide only after 4 h labelling; HDX-MS: WRN stock 16.66 uM in 15 mM Hepes, 150 mM NaCl, pH 7.3; 2 min equilibration with ligand, then 16-fold dilution into deuterated buffer, room temperature, 10 s to 4 h. The note with it: protein: recombinant; tags: N-terminal His-Zbasic tag, TEV-cleaved; single strand.
Chain of WRN helicase core (531-950), lacking the WH domain (Q14191 531-950): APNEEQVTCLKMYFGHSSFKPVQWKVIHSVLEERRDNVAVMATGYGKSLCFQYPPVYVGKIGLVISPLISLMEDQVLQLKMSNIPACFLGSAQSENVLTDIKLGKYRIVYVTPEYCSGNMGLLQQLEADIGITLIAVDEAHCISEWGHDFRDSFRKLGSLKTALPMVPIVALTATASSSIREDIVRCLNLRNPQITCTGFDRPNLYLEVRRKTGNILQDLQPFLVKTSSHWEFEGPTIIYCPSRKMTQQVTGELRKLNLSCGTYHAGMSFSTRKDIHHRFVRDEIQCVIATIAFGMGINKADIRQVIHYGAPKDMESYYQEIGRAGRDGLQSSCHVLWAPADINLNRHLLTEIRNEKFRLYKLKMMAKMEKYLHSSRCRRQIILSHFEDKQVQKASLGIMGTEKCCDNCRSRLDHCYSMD

As for CCAGGTCGATAGGTTCGAATTGGTT (ssDNA) [25-nt ssDNA], the binding result is reported as “binds”.
